According to the domain aggregation screens of Martell et al. (2025):

Assay: soluble fraction after stress (log2 fold change); higher = more stays soluble; pooled small domains, quantitative proteomics
Settings: stress: 75 degC
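Further: 20 min heating vs room temperature control held 20 min.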

| Sequence | soluble fraction (log2) |
| --- | --- |
| HMAQISDEGLLRGLIVEMFEANPAVVEELLGGRDRKKGFVIGQIMKKTKGMANPALLDQLFYEELEKL | -1.1 |
| HMAQTEIPYSEFLREVGNGQIKSVIIEGSEITGFYKTSGTSFNVVAPDDPKLVERLMDQGVEVRAQPT | 0.176 |
| HMAQVVMPNVVGKTEKDATATLEGKNLKVNVEYNLDATSDDGIVKEQSIKSGENIDEGTEITLKVNKV | -2.27 |
| HMAQWGFNGSEAGDLSFQQGDVIEVVEKVKDDWWRGRVLGSTEIGLFPS | -0.309 |
| HMARDDVIRLVQLSLDHLPAKYADALEWKYVEGLSTKEIAARLELGSEAAESLLARARRAFKNDFQEIFES | -1.42 |
| HMAREFPGTIIKRGSRGPDVRWIQQHIGVKLVDGVFGRGTERAVKQFQSRRRLKADGIVGRQTWAAIHN | -1.16 |
| HMARGATELPYSQLLDRVEAGEITTATTQGNTLLSTARDGKRYITYLPLDTMDEVVPRLDAANVEVKTER | 0.103 |
| HMARGLRPVPSVFGLDVRQATRTLYAAGFQVSIARGSDVRTRPAAGTLLRVGSTVQLEMPRMESA | -2.2 |
| HMARGTRTRAKLLAAAEVVFARYGYTEASIERITEEAGVGQGTFYLYFASKLEIFEELVDDLNR | -2.88 |
| HMARLEELSNGSIVEGLLSGEAVTVVSTKWYGSSSMEVFYKTNRGSTGSQILYREDEPSLTVLEKS | -0.831 |
| HMARPLHVDALIHLGTEIGSRVGGAHAGPHLLVAGHSPMSELVYARLLGIPTLGWMRGQLTFVNLSK | 0.0485 |
| HMARSKSRQSSVLESVPGLGPSRRRNLLRHFGGLQGVVKAGVEDLMAVRGISRTLAETVYDHLHPGS | -0.735 |
| HMARTIINLPLRNSVDESYNTTVNILQANGFKEVSYNGETVWKKGTGLLTAMQYIKIEFTDTTLVVSGWVQ | ≥ 1.04 |
| HMARTLSVTVSENYANMRLDSFLFESGLYPSRSKAVKQIESGKVFVNGNEPTKKTIVVANDFIVYEEYAEE | -2.63 |
| HMARTTIATPWDKINDLLQGGLGNGDFGLIFGNPGGGKSWSLVALGGFAVKLGYNVIHYTLE | -0.0148 |
| HMASAEDDLTRRARKLLTTSSMLKTLQPDTGERLQWLPQVVRLLAEGVEAPRIVVLIRRAMESG | -1.26 |
| HMASALDFGRYVRSQYSLQEFPLILIAPLNDPHPKEVVRELFNLYLTKPITRSRLFDSLMTVLG | -0.74 |
| HMASDQGAGALREVSAFFEKHGRVPDPDAVDHDEMRLGSIWASIKSAPTDQMRLEDRFGLLD | 0.135 |
| HMASDYYTTTANLNLRSGAGTTYGSLIIIEKGDTVKLLENVNDHWVKIQYDDKIGYVAMSYLLPIE | -1.31 |
| HMASEKSEQLYQQMKLDIAGMPPDTRLPSIRALMRSYSVSQLLIDRTLGRLREEGALRKRFDGLYTYL | -2.42 |
| HMASELQQVQALLESQRYNEALILIETTIGKGASESTELLFARADVFASSGRHDEAEQAYREL | -0.145 |
| HMASELVSADEKYSGLVSYLLGRVVVVDQIDHAIALAKKYRYSLRIVTLDGELLSPGGSMTGGAFKNS | 0.169 |
| HMASEVEVPNVYGMPSSLAERELSAVGLLADYRSRTGTGQQPGTVVHVKPDAGTVVSRGSTVVLFIA | -0.334 |
| HMASFASRAEEVMTKLLANGQPRIKEVADAMHLSSRTLQRRLEREGVSFAELLDRLRKRLAHDMLAHS | -1.51 |
| HMASFGDLSGLKRTYPPQGLPDASRIADFLIARNEGDLSVEQVKALERFLFEHPDHERTARLVAATRVPA | -0.0446 |
| HMASFTDAQALEVKDLYPDWSKIPEGTHLEAGQRVRYNGNLYKVRTGQAHDKQSTWTPTDAASLFEAID | 0.185 |

| Sequence | soluble fraction (log2) |
| --- | --- |
| HMASIEPLKTSIRIIWYINGEKDSETLLNTPPTAANKANAQKIADMVEQQIQMGIFNRDAVFPSSPKRQ | -1.75 |
| HMASIGVGTIVRVANAVNYNGVKVKAWFNDEGYEVTELSGDRAVLKHNGDLFDAFHVSDLEA | -1.42 |
| HMASINRIENKNGKVVYRIIVSLGYDKQGKKLKKTITYNVNQTATKKQQENEALKYALDIEDKIKNGHD | -1.99 |
| HMASITLDQAKEIALTHAGQTADAVWFEKAEQDYDDGILVYELEFAAKGTEYEYEIDAQTGAIREYKWDD | 0.238 |
| HMASLSEREHDVAVLILQGKTYAEIGQAIFISPRTVEHHVASIRRRLEAKSRSDLIAKLRLTIGGTED | -2.68 |
| HMASPTKQLVLEALRASGQPMSSMELSAQIGVSRATAQRYLSTLASAGEVKIQLRYGTTGRPEQEFLAIE | -1.64 |
| HMASQFSLIVTQADAGMRLDSLLAVSGAYPSRSAAVKQIEAGKVLVNGLARSKRSIVAPGDTIVYEEIP | -0.981 |
| HMASQVERGAVVVTDQRIFFIGVSSEGIEVHGTKIFGMSEKAPLYSHMKGLKKGDSFQFNGLKYVIQDIY | -3.57 |
| HMASRKTERINRLIDVLQHATSRVPASVLSKILGIGERSVRNYVSEVNEQGQFRIDSSSGGYRLVA | -0.492 |
| HMASRTLSYSEFMSRVDSGDVTSVTLDGERIIMRTSNNQEFLSIKPEGEDISERLLAKNIEVRAEAQQ | -0.321 |
| HMASVGTHIKRLRAAKRMTQEELAEQLHVTRQAVSAWETGKALPDVEMLERIAAALDADVTEVIYGA | -0.346 |
| HMATAATGIINNNYVNVRSGPATTYNIVGRLDQGSSIEILGSKNDWYQIKTKQLNGWVKNDFINLQK | -0.283 |
| HMATETELNLQLMRIIDELHTDHNTWGSRKITDYLRLQGYEINRKRIQRLMDVMDIQVVYPK | -2.07 |
| HMATEVEVPDVVGRQMALATQLLEARKLRVNVAEIYDEKTPPGQVVSQSPEAGSSVKEERVVTIYVSR | -0.154 |
| HMATGGKIYIGMNDNGKVVGVSDADKLLEDIPNKVRDVLGIIVDVNLLEENGLKYIEIDVPPYSN | -0.698 |
| HMATGIKAVDNVFGWMNLEQVAKTVGLDIPSVLRASGLPEDTPVDISIKKIPGVDDEELKDSLRQYIEKS | -0.107 |
| HMATGTVKWFNPNKGFGFIQQDDASKDVFVHSNELNGVYINEGDKVEFDVVETEKGLSAQNIKK | 0.222 |
| HMATHGRRAVIELREKIVSGELPGGTRLFEVSLAETLDISRTPVREALSRLAEEGLLDRLPNGGFVVRR | -1.18 |
| HMATIGVGSKVTLTTYVDWVGNGLLKTRDFYFVSELNGKRAVLRADSMNGAIYAAVNIDNLRI | -3.66 |
| HMATINGIEKYLSSGLIPGIGPHTAKKLVEKFGLDTLDIMQYNPDRLTEVEGIGDKKAAKISEAFQEQK | 0.00381 |
| HMATKVNSGVTVRDLAELLGLSSADLIKKLMTMGEMATLTQTLTDDSVKAIADEYDRKIEIVSAAQ | 0.536 |
| HMATLTPLGRLQLARYHAQERATLAATAERFQVSTTTVRRWVGRYHQVVAAGGRPTTADMQDRPSRP | -2.07 |
| HMATMSIDERILEIRSRAGLTQQEMADRLFVTRQAVSRWERGETVPGIDTLRLIAEAFDVRVDQILEL | -1.66 |
| HMATQMSSARRGIATDEMKQVAKDEDVTLDWLLPKIAIGSIIIPSNNVRPQKIHNVGIGKGMKTKVN | 0.195 |
| HMATTTEPTSPPAATASLEAKINWLFLIFRNKKTVTASEQKFHAEDASTVVGKETLTDDGTTMTKGETAAG | -0.0674 |
| HMATVELELKPEELRAGMILTKDLISGTGMMLLNKGVTLDNVKVEAIQRYYQLDPPLHGVFALVHGK | -1.32 |

| Sequence | soluble fraction (log2) |
| --- | --- |
| HMATVGENIRRYRKAQNLSAAKLAEKVGLTQGAILHYERGIRTPGISQLEKIAHALNVSPRM | -0.144 |
| HMATVPNVVGLSEEKAKSRLANNGLNVSVTTEEVSDKSKDGIVSSQTSEGDTVKQGATITITVGKYVEK | 0.111 |
| HMATYDIDALKVDLPSAKELAQFVYDKTDGLVSLDLIGKPKEEQYIVAKNALEGKKVPAEYLTGFNPY | 0.702 |
| HMATYTPYDKQGAKLWRVTAYLGMDSVTGKQRNMKKGGFKTKKEAQLYYNQVKLDFENGTLDQ | -1.36 |
| HMAVEQLKSQIGGFLKANREQSFSAQNMADGLRMNSAAGYQDVVNAMNALVRDGEAVEKDGQFSYNVN | 0.116 |
| HMAVETYRVKKSDTMQTIADRFGLSVEELLEYNQAYKTRELRARDILIIPSRKERKKLQQQKAQAAAQVVQ | -0.632 |
| HMAVGTASNLIGKDIEAYAPIDGSQSSDDTKTISGKVESVHIKDGVVYMNVKDSQSENIIEVEYGALIKVN | 0.251 |
| HMAVKPIDRLRSLMAESNVTDAELQKVVADKGHYAADAPIDSYSEKFISGWLIKYWSQILNLINADRTVL | -0.691 |
| HMAVKTEHGRIWKALPEGQDGYREDVPMFTSKSMYDGSAGIGIFLIRLYEATSDERWLKEAEEAAAHII | 0.157 |
| HMAVLEGPAGKLGIVRFEANRSFTGMGHERFSSADQAFGTKPAAVVASRLFATGQVAGVHVYGNIITVELA | 0.632 |
| HMAVNDPDEKFIELGIPADWVQVVRKAGFQTVEALKTVENPNKLHQELSGLNKKMKLGLKTLSQDEVKDWF | 0.0688 |
| HMAVPMTPGELVGSRVRVLWWKDGRGEVVALARGHQATLPARSEEPLRTGADAVVLEADEGTLVVTS | -0.13 |
| HMAVSGRMMVYEYIRQQMREGSLLPGSVLDLPAISHKLGISNTPLRDSLIRLEAEGYLTIYPRSKVVIN | -3.03 |
| HMAVTGRVDLRIKPWGYVSVDGAAKVSSPPTMQLKLAPGRHEIEITNPAGAAVTKTVDVIAGKSVTVQHN | -0.0874 |
| HMAVTKVKVITESSNLNIRKGPGTDQPIVGKAAHHEIITLVNKSNDQWWLVRTNDGEEGYSYSRYLEPVT | -0.667 |
| HMAVVEVATTTATEYKVEKGHHFKVGDFVMFKTGAKSYAITAIDTTSPIFDKITVGTTLGEAIPVGGTLM | -1.62 |
| HMAVVIPDVKGMTIEEAAPFLAEKGIRYNIIDSVFSKDVDPGAIVEIVPTPGSKVKEGRIVFVTINAK | -0.774 |
| HMAVVQMVDRPGGLDELLKDVVRAGVNFANAYGRTASDGNSAFFVIDIQDIPGARQKLADVGLQILADEAV | -0.383 |
| HMAWAVDVGVVGLFPGKAVLVIDGGAPRTVPVGANVGGVRLLAVDQGSATVEIGGKRQRLAIGQHAH | -1.69 |
| HMAWIGEHTVTSEDTLSHIALKFYGHATPPYYKLIYEANKAIIGDNMNIIVPGQVLRIPALPEEL | -1.35 |
| HMAYLTVPAVIAKDTKKSIQLLESKGFEVVIQDSIYTDTLARGTVIKQLPDPNATVKINRTVYLTVNRYTP | -2.41 |
| HMAYQQITIKANVVNVRQGPGLSYDVMSQANKGETMNVISQKNNWYQVRLSGDKIGWVASWLVDNT | -3.08 |
| HMAYWVVKNNQVSLQINRSNYQITSTARALSNGNLGDEIDVKVLQSGVIKKAVVIGKGQVELLR | -3.24 |
| HMDAHIGTLTPRERETLHHLAIGHSNKVIAKKLNLAESTVKAYVQSILRKLGLSSRVQAAVYAIQHDIR | -0.702 |
| HMDAIDPKTVTSWADLWKPEYKSSLLLTDDAREVFQMALRKLGYSGNTTDPKEIEAAYNELKKLMPNVAAF | -0.193 |
